± gives the standard deviation of the averaged measurements.
Legend:
hTERT-HMEC = assay: percentage of EdU-negative (G0-arrested) nuclei per well, 72 h; higher = more G0 arrest; settings: reference: sequence is the full UniProt precursor, the tested protein was the secreted form or ectodomain
MCF7 = assay: as above; settings: reference: sequence is the full UniProt precursor, the tested protein was the secreted form or ectodomain
[1] = protein concentration 0.01425 µM
[2] = protein concentration 0.1425 µM
[3] = protein concentration 0.0202725 µM
[4] = protein concentration 0.202725 µM
[5] = protein concentration 0.0357143 µM
[6] = protein concentration 0.357143 µM
[7] = protein concentration 0.03125 µM
[8] = protein concentration 0.3125 µM
[9] = protein concentration 0.01034 µM
[10] = protein concentration 0.1034 µM
[11] = protein concentration 0.0294275 µM
[12] = protein concentration 0.294275 µM
[13] = protein concentration 0.0257143 µM
[14] = protein concentration 0.257143 µM
[15] = protein concentration 0.0225 µM
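Also: secreted proteins added to cultured cells, EdU pulse at the end, nuclei found by Hoechst imaging, EdU status from nuclear versus surrounding ring intensity ratio, PBS as neutral control.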

## MERCPSLGVTLYALVVVLGLRATPAGGQHYLHIRPAPSDNLPLVDLIEHPDPIFDPKEKDLNETLLRSLLGGHYDPGFMATSPPEDRPGGGGGAAGGAEDLAELDQLLRQRPSGAMPSEIKGLEFSEGLAQGKKQRLSKKLRRKLQMWLWSQTFCPVLYAWNDLGSRFWPRYVKVGSCFSKRSCSVPEGMVCKPSKSVHLTVLRWRCQRRGGQRCGWIPIQYPIISECKCSC
hTERT-HMEC; [1]
  percentage of EdU-negative: 4.77 ± 0.41%
hTERT-HMEC; [2]
  percentage of EdU-negative: 5.81 ± 0.99%
MCF7; [1]
  percentage of EdU-negative: 23.9 ± 0.44%
MCF7; [2]
  percentage of EdU-negative: 25.4 ± 2.8%

## MERDGCAGGGSRGGEGGRAPREGPAGNGRDRGRSHAAEAPGDPQAAASLLAPMDVGEEPLEKAARARTAKDPNTYKVLSLVLSVCVLTTILGCIFGLKPSCAKEVKSCKGRCFERTFGNCRCDAACVELGNCCLDYQETCIEPEHIWTCNKFRCGEKRLTRSLCACSDDCKDKGDCCINYSSVCQGEKSWVEEPCESINEPQCPAGFETPPTLLFSLDGFRAEYLHTWGGLLPVISKLKKCGTYTKNMRPVYPTKTFPNHYSIVTGLYPESHGIIDNKMYDPKMNASFSLKSKEKFNPEWYKGEPIWVTAKYQGLKSGTFFWPGSDVEINGIFPDIYKMYNGSVPFEERILAVLQWLQLPKDERPHFYTLYLEEPDSSGHSYGPVSSEVIKALQRVDGMVGMLMDGLKELNLHRCLNLILISDHGMEQGSCKKYIYLNKYLGDVKNIKVIYGPAARLRPSDVPDKYYSFNYEGIARNLSCREPNQHFKPYLKHFLPKRLHFAKSDRIEPLTFYLDPQWQLALNPSERKYCGSGFHGSDNVFSNMQALFVGYGPGFKHGIEADTFENIEVYNLMCDLLNLTPAPNNGTHGSLNHLLKNPVYTPKHPKEVHPLVQCPFTRNPRDNLGCSCNPSILPIEDFQTQFNLTVAEEKIIKHETLPYGRPRVLQKENTICLLSQHQFMSGYSQDILMPLWTSYTVDRNDSFSTEDFSNCLYQDFRIPLSPVHKCSFYKNNTKVSYGFLSPPQLNKNSSGIYSEALLTTNIVPMYQSFQVIWRYFHDTLLRKYAEERNGVNVVSGPVFDFDYDGRCDSLENLRQKRRVIRNQEILIPTHFFIVLTSCKDTSQTPLHCENLDTLAFILPHRTDNSESCVHGKHDSSWVEELLMLHRARITDVEHITGLSFYQQRKEPVSDILKLKTHLPTFSQED
hTERT-HMEC; [3]
  percentage of EdU-negative: 4.82 ± 0.41%
hTERT-HMEC; [4]
  percentage of EdU-negative: 5.77 ± 0.8%
MCF7; [3]
  percentage of EdU-negative: 25.1 ± 0.47%
MCF7; [4]
  percentage of EdU-negative: 24.77 ± 0.21%

## MERLVIRMPFSHLSTYSLVWVMAAVVLCTAQVQVVTQDEREQLYTPASLKCSLQNAQEALIVTWQKKKAVSPENMVTFSENHGVVIQPAYKDKINITQLGLQNSTITFWNITLEDEGCYMCLFNTFGFGKISGTACLTVYVQPIVSLHYKFSEDHLNITCSATARPAPMVFWKVPRSGIENSTVTLSHPNGTTSVTSILHIKDPKNQVGKEVICQVLHLGTVTDFKQTVNKGYWFSVPLLLSIVSLVILLVLISILLYWKRHRNQDRGELSQGVQKMT
hTERT-HMEC; [5]
  percentage of EdU-negative: 5.34 ± 1.2%
hTERT-HMEC; [6]
  percentage of EdU-negative: 5.8 ± 1%
MCF7; [5]
  percentage of EdU-negative: 23.6 ± 3.9%
MCF7; [6]
  percentage of EdU-negative: 23.5 ± 1%

## MERMLPLLALGLLAAGFCPAVLCHPNSPLDEENLTQENQDRGTHVDLGLASANVDFAFSLYKQLVLKAPDKNVIFSPLSISTALAFLSLGAHNTTLTEILKGLKFNLTETSEAEIHQSFQHLLRTLNQSSDELQLSMGNAMFVKEQLSLLDRFTEDAKRLYGSEAFATDFQDSAAAKKLINDYVKNGTRGKITDLIKDLDSQTMMVLVNYIFFKAKWEMPFDPQDTHQSRFYLSKKKWVMVPMMSLHHLTIPYFRDEELSCTVVELKYTGNASALFILPDQDKMEEVEAMLLPETLKRWRDSLEFREIGELYLPKFSISRDYNLNDILLQLGIEEAFTSKADLSGITGARNLAVSQVVHKAVLDVFEEGTEASAATAVKITLLSALVETRTIVRFNRPFLMIIVPTDTQNIFFMSKVTNPKQA
hTERT-HMEC; [7]
  percentage of EdU-negative: 4.76 ± 0.8%
hTERT-HMEC; [8]
  percentage of EdU-negative: 9.51 ± 0.15%
MCF7; [7]
  percentage of EdU-negative: 24.5 ± 0.068%
MCF7; [8]
  percentage of EdU-negative: 28 ± 3.5%

## MERPLCSHLCSCLAMLALLSPLSLAQYDSWPHYPEYFQQPAPEYHQPQAPANVAKIQLRLAGQKRKHSEGRVEVYYDGQWGTVCDDDFSIHAAHVVCRELGYVEAKSWTASSSYGKGEGPIWLDNLHCTGNEATLAACTSNGWGVTDCKHTEDVGVVCSDKRIPGFKFDNSLINQIENLNIQVEDIRIRAILSTYRKRTPVMEGYVEVKEGKTWKQICDKHWTAKNSRVVCGMFGFPGERTYNTKVYKMFASRRKQRYWPFSMDCTGTEAHISSCKLGPQVSLDPMKNVTCENGLPAVVSCVPGQVFSPDGPSRFRKAYKPEQPLVRLRGGAYIGEGRVEVLKNGEWGTVCDDKWDLVSASVVCRELGFGSAKEAVTGSRLGQGIGPIHLNEIQCTGNEKSIIDCKFNAESQGCNHEEDAGVRCNTPAMGLQKKLRLNGGRNPYEGRVEVLVERNGSLVWGMVCGQNWGIVEAMVVCRQLGLGFASNAFQETWYWHGDVNSNKVVMSGVKCSGTELSLAHCRHDGEDVACPQGGVQYGAGVACSETAPDLVLNAEMVQQTTYLEDRPMFMLQCAMEENCLSASAAQTDPTTGYRRLLRFSSQIHNNGQSDFRPKNGRHAWIWHDCHRHYHSMEVFTHYDLLNLNGTKVAEGHKASFCLEDTECEGDIQKNYECANFGDQGITMGCWDMYRHDIDCQWVDITDVPPGDYLFQVVINPNFEVAESDYSNNIMKCRSRYDGHRIWMYNCHIGGSFSEETEKKFEHFSGLLNNQLSPQ [Q9Y4K0]
hTERT-HMEC; [9]
  percentage of EdU-negative: 4.4 ± 0.43%
hTERT-HMEC; [10]
  percentage of EdU-negative: 9.13 ± 1.5%
MCF7; [9]
  percentage of EdU-negative: 25.4 ± 0.28%
MCF7; [10]
  percentage of EdU-negative: 27.7 ± 0.84%

## MERPSLRALLLGAAGLLLLLLPLSSSSSSDTCGPCEPASCPPLPPLGCLLGETRDACGCCPMCARGEGEPCGGGGAGRGYCAPGMECVKSRKRRKGKAGAAAGGPGVSGVCVCKSRYPVCGSDGTTYPSGCQLRAASQRAESRGEKAITQVSKGTCEQGPSIVTPPKDIWNVTGAQVYLSCEVIGIPTPVLIWNKVKRGHYGVQRTELLPGDRDNLAIQTRGGPEKHEVTGWVLVSPLSKEDAGEYECHASNSQGQASASAKITVVDALHEIPVKKGEGAEL
hTERT-HMEC; [11]
  percentage of EdU-negative: 4.88 ± 0.84%
hTERT-HMEC; [12]
  percentage of EdU-negative: 5.65 ± 0.3%
MCF7; [11]
  percentage of EdU-negative: 25.4 ± 0.77%
MCF7; [12]
  percentage of EdU-negative: 26.5 ± 1.5%

## MERRAWSLQCTAFVLFCAWCALNSAKAKRQFVNEWAAEIPGGPEAASAIAEELGYDLLGQIGSLENHYLFKHKNHPRRSRRSAFHITKRLSDDDRVIWAEQQYEKERSKRSALRDSALNLFNDPMWNQQWYLQDTRMTAALPKLDLHVIPVWQKGITGKGVVITVLDDGLEWNHTDIYANYDPEASYDFNDNDHDPFPRYDPTNENKHGTRCAGEIAMQANNHKCGVGVAYNSKVGGIRMLDGIVTDAIEASSIGFNPGHVDIYSASWGPNDDGKTVEGPGRLAQKAFEYGVKQGRQGKGSIFVWASGNGGRQGDNCDCDGYTDSIYTISISSASQQGLSPWYAEKCSSTLATSYSSGDYTDQRITSADLHNDCTETHTGTSASAPLAAGIFALALEANPNLTWRDMQHLVVWTSEYDPLANNPGWKKNGAGLMVNSRFGFGLLNAKALVDLADPRTWRSVPEKKECVVKDNDFEPRALKANGEVIIEIPTRACEGQENAIKSLEHVQFEATIEYSRRGDLHVTLTSAAGTSTVLLAERERDTSPNGFKNWDFMSVHTWGENPIGTWTLRITDMSGRIQNEGRIVNWKLILHGTSSQPEHMKQPRVYTSYNTVQNDRRGVEKMVDPGEEQPTQENPKENTLVSKSPSSSSVGGRRDELEEGAPSQAMLRLLQSAFSKNSPPKQSPKKSPSAKLNIPYENFYEALEKLNKPSQLKDSEDSLYNDYVDVFYNTKPYKHRDDRLLQALVDILNEEN
hTERT-HMEC; protein concentration 0.009 µM
  percentage of EdU-negative: 4.928 ± 0.013%
hTERT-HMEC; protein concentration 0.09 µM
  percentage of EdU-negative: 7.51 ± 0.97%
MCF7; protein concentration 0.009 µM
  percentage of EdU-negative: 25.7 ± 4%
MCF7; protein concentration 0.09 µM
  percentage of EdU-negative: 27.832 ± 0.026%

## MERVQPLEENVGNAARPRFERNKLLLVASVIQGLGLLLCFTYICLHFSALQVSHRYPRIQSIKVQFTEYKKEKGFILTSQKEDEIMKVQNNSVIINCDGFYLISLKGYFSQEVNISLHYQKDEEPLFQLKKVRSVNSLMVASLTYKDKVYLNVTTDNTSLDDFHVNGGELILIHQNPGEFCVL
hTERT-HMEC; [13]
  percentage of EdU-negative: 5.74 ± 1.2%
hTERT-HMEC; [14]
  percentage of EdU-negative: 5.19 ± 1.2%
MCF7; [13]
  percentage of EdU-negative: 23.4 ± 0.97%
MCF7; [14]
  percentage of EdU-negative: 27.27 ± 0.14%

## MESKGASSCRLLFCLLISATVFRPGLGWYTVNSAYGDTIIIPCRLDVPQNLMFGKWKYEKPDGSPVFIAFRSSTKKSVQYDDVPEYKDRLNLSENYTLSISNARISDEKRFVCMLVTEDNVFEAPTIVKVFKQPSKPEIVSKALFLETEQLKKLGDCISEDSYPDGNITWYRNGKVLHPLEGAVVIIFKKEMDPVTQLYTMTSTLEYKTTKADIQMPFTCSVTYYGPSGQKTIHSEQAVFDIYYPTEQVTIQVLPPKNAIKEGDNITLKCLGNGNPPPEEFLFYLPGQPEGIRSSNTYTLTDVRRNATGDYKCSLIDKKSMIASTAITVHYLDLSLNPSGEVTRQIGDALPVSCTISASRNATVVWMKDNIRLRSSPSFSSLHYQDAGNYVCETALQEVEGLKKRESLTLIVEGKPQIKMTKKTDPSGLSKTIICHVEGFPKPAIQWTITGSGSVINQTEESPYINGRYYSKIIISPEENVTLTCTAENQLERTVNSLNVSAISIPEHDEADEISDENREKVNDQAKLIVGIVVGLLLAALVAGVVYWLYMKKSKTASKHVNKDLGNMEENKKLEENNHKTEA
hTERT-HMEC; [5]
  percentage of EdU-negative: 4.83 ± 0.2%
hTERT-HMEC; [6]
  percentage of EdU-negative: 5.08 ± 0.77%
MCF7; [5]
  percentage of EdU-negative: 26.8 ± 1.2%
MCF7; [6]
  percentage of EdU-negative: 25.13 ± 0.15%

## MESPSAPPHRWCIPWQRLLLTASLLTFWNPPTTAKLTIESTPFNVAEGKEVLLLVHNLPQHLFGYSWYKGERVDGNRQIIGYVIGTQQATPGPAYSGREIIYPNASLLIQNIIQNDTGFYTLHVIKSDLVNEEATGQFRVYPELPKPSISSNNSKPVEDKDAVAFTCEPETQDATYLWWVNNQSLPVSPRLQLSNGNRTLTLFNVTRNDTASYKCETQNPVSARRSDSVILNVLYGPDAPTISPLNTSYRSGENLNLSCHAASNPPAQYSWFVNGTFQQSTQELFIPNITVNNSGSYTCQAHNSDTGLNRTTVTTITVYAEPPKPFITSNNSNPVEDEDAVALTCEPEIQNTTYLWWVNNQSLPVSPRLQLSNDNRTLTLLSVTRNDVGPYECGIQNELSVDHSDPVILNVLYGPDDPTISPSYTYYRPGVNLSLSCHAASNPPAQYSWLIDGNIQQHTQELFISNITEKNSGLYTCQANNSASGHSRTTVKTITVSAELPKPSISSNNSKPVEDKDAVAFTCEPEAQNTTYLWWVNGQSLPVSPRLQLSNGNRTLTLFNVTRNDARAYVCGIQNSVSANRSDPVTLDVLYGPDTPIISPPDSSYLSGANLNLSCHSASNPSPQYSWRINGIPQQHTQVLFIAKITPNNNGTYACFVSNLATGRNNSIVKSITVSASGTSPGLSAGATVGIMIGVLVGVALI
hTERT-HMEC; [15]
  percentage of EdU-negative: 5.67 ± 0.092%
hTERT-HMEC; protein concentration 0.225 µM
  percentage of EdU-negative: 5.42 ± 0.42%
MCF7; [15]
  percentage of EdU-negative: 26.7 ± 2.2%
MCF7; protein concentration 0.225 µM
  percentage of EdU-negative: 25.3 ± 0.33%

— the supplement of paper PMC11316812
